Measurements from patent US20250263466A1 (VIR BIOTECHNOLOGY, published 2025).

T1: MERS-CoV S protein (London1/2012) expressed on ExpiCHO cells (MERS-CoV, UniProt K9N5Q8 18-1353)
T1 sequence: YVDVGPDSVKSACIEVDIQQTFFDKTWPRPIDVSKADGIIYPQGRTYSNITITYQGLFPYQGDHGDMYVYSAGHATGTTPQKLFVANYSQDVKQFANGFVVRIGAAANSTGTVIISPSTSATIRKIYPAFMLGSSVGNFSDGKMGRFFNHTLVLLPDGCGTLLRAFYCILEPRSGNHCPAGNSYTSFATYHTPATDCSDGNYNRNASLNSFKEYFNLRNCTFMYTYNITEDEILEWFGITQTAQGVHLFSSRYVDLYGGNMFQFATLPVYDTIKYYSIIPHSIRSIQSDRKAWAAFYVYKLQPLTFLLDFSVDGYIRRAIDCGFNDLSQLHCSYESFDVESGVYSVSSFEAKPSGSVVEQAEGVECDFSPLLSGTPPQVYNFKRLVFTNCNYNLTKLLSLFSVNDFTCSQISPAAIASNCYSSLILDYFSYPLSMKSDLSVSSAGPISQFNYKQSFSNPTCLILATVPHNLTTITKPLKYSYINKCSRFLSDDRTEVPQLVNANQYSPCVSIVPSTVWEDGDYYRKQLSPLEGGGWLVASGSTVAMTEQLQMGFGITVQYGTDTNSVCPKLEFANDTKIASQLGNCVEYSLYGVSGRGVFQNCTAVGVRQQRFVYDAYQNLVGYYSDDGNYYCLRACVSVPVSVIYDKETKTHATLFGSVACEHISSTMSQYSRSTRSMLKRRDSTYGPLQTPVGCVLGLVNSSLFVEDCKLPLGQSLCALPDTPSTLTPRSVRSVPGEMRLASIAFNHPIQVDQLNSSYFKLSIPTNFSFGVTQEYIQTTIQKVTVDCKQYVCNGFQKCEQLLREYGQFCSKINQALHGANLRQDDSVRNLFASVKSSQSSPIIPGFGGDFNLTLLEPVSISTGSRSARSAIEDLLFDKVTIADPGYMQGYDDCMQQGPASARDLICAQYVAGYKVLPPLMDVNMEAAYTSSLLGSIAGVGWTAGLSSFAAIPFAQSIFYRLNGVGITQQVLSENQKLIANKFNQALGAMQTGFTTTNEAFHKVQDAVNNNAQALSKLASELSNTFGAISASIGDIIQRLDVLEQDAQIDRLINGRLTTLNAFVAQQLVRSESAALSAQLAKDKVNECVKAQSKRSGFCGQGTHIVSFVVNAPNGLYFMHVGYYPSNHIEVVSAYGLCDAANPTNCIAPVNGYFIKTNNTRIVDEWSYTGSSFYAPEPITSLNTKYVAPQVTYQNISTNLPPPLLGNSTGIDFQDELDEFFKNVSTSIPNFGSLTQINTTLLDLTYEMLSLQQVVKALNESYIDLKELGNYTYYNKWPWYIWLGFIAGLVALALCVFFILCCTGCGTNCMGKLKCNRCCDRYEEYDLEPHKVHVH

B1: nCoV-14 mAb (antibody, V domains shown)
VH: QVQLVHSGAEVKKPGASVRVSCKASGYTYTAYYIHWLRQAPGQGLEWMGWINADNGDTHSVQKFQGRVTMTRDTSINTAYLEVSRLKSDDTAVYYCARGDVPVGTGWVFDFWGQGTLVTVSS
VL: DIQMTQSPSSLSASVGDSVTISCRASQTINNFLNWYQQKPGKAPNLLIYGAYNLQSGVPSRFSGSGSGTDFTLTISSLQPEDVAIYYCQQSLSMVTFGQGTRLDIK
B2: nCoV-10 mAb (antibody, V domains shown)
VH: QVQLVESGGGVVQPGRSLRLSCAASGFTFSNYGMHWVRQAPGKGLEWLAVISSDGRIKFYADSVKGRFTMSRDSSKNTLYLQMNSLRAEDTAVYYCAKDRFQFARSWYGDYFDYWGQGTQVTVSS
VL: AVAMTQSPLSLPVTLGQPASISCRSNQSLVYSDGNIYLNWFQQRPGQSPMRLIYRVSNRDSGVPDRFSGSGSGTDFTLKISRVEAEDVGIYYCMQGTHWPPTFGGGTKVEIK
B3: nCoV-12 mAb (antibody, V domains shown)
VH: QVQLVESGGGVVQPGRSLRLSCAGSGFTFSSFGLHWVRQAPGKGLEWLALISDEGRIKYYANSVKGRFFISRDNSKNTLYLQMNSLRGEDTAVYYCARDVKGHIVVMTSLDYWGQGALVTVSS
VL: DVVMTQSPLSLPVTLGQPASISCRSSQSLVSSDGDTSLSWFQQRPGQSPRRLIYEVSNRDSGVPDRFSGSGSGTDFTLKISRVEAEDVGVYYCMQGTHWPPTFGQGTKVEIK
B4: nCoV-19 mAb (antibody, V domains shown)
VH: QVKLVESGGGVVQPGRSLRLSCAASGFTFSSNAMHWVRQTPGKGLEWVALISYDERNKYYAESVKGRFTISRDNSKNTLYLQMNSLRHEDTAVYYCARDLQMRVVVVSNFDYWGQGTLVTVSS
VL: DVVMTQSPLSLPVTLGQPASISCRSSQSLVYSDGNTYLNWFQQRPGQSPRRLIYEVSNWDSGVPDRFSGSGSGTDFTLKISRVEAEDVGVYYCMQATHWPPTFGQGTKLEIK
B5: nCoV-17 mAb (antibody, V domains shown)
VH: QVQLVESGGGVVQPGRSLRLSCAASGFTFSSYAIHWVRQAPGKGLEWLAVISFDGRHKYYADSVKGRFTISRDNSKNTVYLQMNSLRVEDTAVYSCARDIRHLIVVVSDMDVWGQGTTVTVSS
VL: DVVMTQSPLSLPVTLGQPASISCRSSQSLVNSDGDTSLNWFQQRPGQSPRRLIYKVSNRDSGVPDRISGSGSGTDFTLKISRVEAEDVGVYYCMQGTHWPPTFGQGTKLEIK
B6: nCoV-1 mAb (antibody, V domains shown)
VH: QAQLVESGGALVQPGRSLRLSCAASGFTFRNYAMHWVRQAPATGLQWLAVITSDGRNKFYADSVKGRFTISREDSKNTLYLQMDSLRGEDTAVYYCVTQRDNSRDYFPHYFHDMDVWGQGTTVAVSS
VL: DVVLTQSPLSLPVTLGQPASISCRSSQSLVYSDGDTYLNWFQQRPGQSPRRLIYQVSNRDSGVPDRFSGSGSGTDFTLKISRVEAEDVGVYYCMQGSHWPPTFGQGTKVEIK
B7: nCoV-15 mAb (antibody, V domains shown)
VH: EVQLVESGGGLVTPGRSLRLSCTASGFTFGDYALSWFRQAPGKGLEWVAFIRSKAYGGTTEYAASVKGRFTISRDDSQIIVYLQMDSLKTEDTAVYYCSWIHRIVSWGQGTLVTVSS
VL: DIQMTQSPSSLSASEGDRVTITCQASQDISIYLNWFQQKPGKAPKLLIYEASNLKTGVPSRFSGSGSGTDFTFTISSLQPEDIATYYCQQYDNLPYTFGQGTKLEIK
B8: nCoV-16 mAb (antibody, V domains shown)
VH: QVQLVESGGGVVQPGRSLRLSCAASGFTFSSYGMHWVRQAPGKGLEWVAFISYDGSNIQYADSVQGRFTISRDNSKTTLYLQMNSLRVEDTAMYYCAKDLFGYCRSTSCESLDDWGQGALVTVSS
VL: DIQLTQSPSFLSASVGDRVTITCRASQGISSYLAWYQQKPGKAPKLLIYAASTLQSGVPSRFSGTGYGTEFTLTISSLQPEDFATYYCQQLNNYPLTFGGGTKVEIK
B9: nCoV-20 mAb (antibody, V domains shown)
VH: QVTLRESGPALVKPTQTLTLTCTFSGFSLTTTEMCVGWIRQPPGKALEWLALIDWDDDKYYSTSLRTRLTISKDTSKNQVVLTMTNMDPVDTATYYCARMFGRKRLAPTGFDPWGQGTLVTVSS
VL: DIVMTQSPLSLPVTPGEPASISCRSSQSLLHSNGKNYLDWYLQKPGQSPQLLICLGSYRASGVPDRFSGSGSGTDFTLKISRVEAEDVGVYYCMQALQTPWTFGQGTKVEIK
B10: nCoV-11 mAb (antibody, V domains shown)
VH: LVQLVESGGGVVQPGRSLRLSCAGSGFTFSSYGMHWVRQTPGKGLEWVAVISFDGRNKFYADPVKGRFTISRDNSKNTVFLELDSLTTEDTAFYYCARDDNLDRHWPLRLGGYWGQGTLVTVSS
VL: EIVMTQSPLSLPVTLGQPASISCRSSQDLLYNDGGTDLNWFQQRPGQSPRRLIYRVSNRDSGVPDRFSGSGSGSDFTLKISRVEAEDVGIYYCMQGAHWPPTFGPGTKVEIK
B11: nCoV-13 mAb (antibody, V domains shown)
VH: EVQLVESGGGLVKPGGSLRLSCAASGFTFSNYNMNWVRQAPGKGLEWVSSIGSSSTYIYSADSVKGRFTISRDNAMNSLFLQMKSLRAEDTAVYYCARGFERYYFDSWGQGTLVTVSS
VL: QSVLTQPPSASGTPGQRVTISCSGSTSNIGTNVVNWYQQLPGTAPKLLIYSNNQRPSWVPDRFSGSKSGTSASLAISGLQSEDEADYYCVAWDDILNAVVFAGGTKLTVL
B12: nCoV-18 mAb (antibody, V domains shown)
VH: QVQLVQSGAEVRQPGTSVKVSCKASGYTFMNNDITWVRQAPGQVLQWMGWIRPSNGNTNYAQKFQGRVTLTTDTSTNTAHMELRSLKSDDTAVYYCARQSHSTRGGWHFSPWGQGTLVTVSS
VL: DIQMTQSPSSLSASVGDRVTITCRPSQPISYFLNWYQQTPGKAPKLLIYAASSLQSGVPSRFSGSGSGTDFTLTISSLQPEDSATYYCQQSYSVPYTFGQGTKLEIK

Assays:
[1] = target: T1, MERS-CoV S protein (London1/2012) …; assay: flow cytometry on ExpiCHO cells transfected with MERS-CoV S
[2] = target: SARS-CoV S protein (Urbani strain) expressed on ExpiCHO cells (SARS-CoV, UniProt P59594 14-1255); assay: flow cytometry on ExpiCHO cells transfected with SARS-CoV S
[3] = target: SARS-CoV Spike S1 Subunit Protein (strain WH20) (SARS-CoV, UniProt P59594 14-667); assay: Octet (BLI): inhibition of SARS-CoV S1 binding to immobilized hACE2

Binder | binding result [1] | binding result [2] | IC50 [3]
B1 | no binding (tested: 10 µg/ml) | binds | –
B2 | no binding (tested: 10 µg/ml) | – | 2.69 µg/mL
B3 | no binding (tested: 0.8 µg/ml) | binds | –
B4 | no binding (tested: 10 µg/ml) | binds | –
B5 | no binding (tested: 10 µg/ml) | binds | –
B6 | no binding (tested: 10 µg/ml) | – | 1.13 µg/mL
B7 | no binding (tested: 0.8 µg/ml) | binds | –
B8 | no binding (tested: 10 µg/ml) | binds | –
B9 | no binding (tested: 10 µg/ml) | binds | –
B10 | no binding (tested: 10 µg/ml) | binds | –
B11 | no binding (tested: 7 µg/ml) | binds | –
B12 | no binding (tested: 10 µg/ml) | binds | –
